Assay results from patent KR20230148435A.

B1: YYB-101 Single Chain Variable Fragment (scFv) (scFv)
scFv: DIQMTQSPSSLSASVGDRVTITCRASQGISNILAWYQQKPGKAPKLLIYGASNLESGVPSRFSGSGSGTDFTLTISSLQPEDFATYYCQSGYYSRGATFGQGTKVEIKGGGGSGGGGSGGGGSEVQLVESGGGLVQPGGSLRLSCAASGFTFSTYYMSWVRQAPGKGLEWVAYIGTSSGTTYYADSVKGRFTISRDGSKNTLYLQMNSLRAEDTAVYYCARGLGRINLWGQGTLVTVSS
B2: YYB-101 (HGF neutralising antibody) (antibody, human IgG4 S228P, kappa, V domains shown)
VH: EVQLVESGGGLVQPGGSLRLSCAASGFTFSTYYMSWVRQAPGKGLEWVAYIGTSSGTTYYADSVKGRFTISRDGSKNTLYLQMNSLRAEDTAVYYCARGLGRINLWGQGTLVTVSS
VL: DIQMTQSPSSLSASVGDRVTITCRASQGISNILAWYQQKPGKAPKLLIYGASNLESGVPSRFSGSGSGTDFTLTISSLQPEDFATYYCQSGYYSRGATFGQGTKVEIKR

Assays:
[1] = molecular target: HGF protein (hepatocyte growth factor) (UniProt P14210); experiment: ELISA, HGF coated on plate, 24 h culture supernatant of YYB-103-1XX+YYB-101 scFv CAR-T cells
Sequence of UniProt P14210 (P14210 32-728 limits assumed): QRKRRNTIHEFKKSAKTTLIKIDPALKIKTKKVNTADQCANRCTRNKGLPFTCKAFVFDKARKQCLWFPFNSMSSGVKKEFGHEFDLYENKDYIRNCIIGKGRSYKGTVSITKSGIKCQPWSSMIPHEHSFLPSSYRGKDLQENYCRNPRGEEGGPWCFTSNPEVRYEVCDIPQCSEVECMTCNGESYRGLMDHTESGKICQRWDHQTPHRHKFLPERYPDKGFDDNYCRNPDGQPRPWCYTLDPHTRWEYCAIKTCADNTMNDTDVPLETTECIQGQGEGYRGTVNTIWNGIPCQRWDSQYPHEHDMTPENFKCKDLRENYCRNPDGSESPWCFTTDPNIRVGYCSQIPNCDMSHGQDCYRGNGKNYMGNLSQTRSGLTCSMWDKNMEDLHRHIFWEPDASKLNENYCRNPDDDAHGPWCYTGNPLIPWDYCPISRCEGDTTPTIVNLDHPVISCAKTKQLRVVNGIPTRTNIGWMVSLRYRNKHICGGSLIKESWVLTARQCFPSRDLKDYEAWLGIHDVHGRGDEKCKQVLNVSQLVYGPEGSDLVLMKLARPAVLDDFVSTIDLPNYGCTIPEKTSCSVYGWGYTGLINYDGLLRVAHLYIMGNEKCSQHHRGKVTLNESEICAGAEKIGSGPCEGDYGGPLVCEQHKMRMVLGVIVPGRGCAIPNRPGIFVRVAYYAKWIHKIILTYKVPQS

[2] = molecular target: HGF protein (hepatocyte growth factor) (UniProt P14210); experiment: ELISA, HGF coated on plate, YYB-101 at 1 ug/mL as positive control

Row | Binder | OD, 450nm (HGF 결합) [1] | OD, 450nm (HGF 결합) [2]
1 | B1 | 2.63 OD 450 nm | –
2 | B2 | – | 3.02 OD 450 nm
